± gives the half width of the 95% confidence interval.
Assays:
[1] = folding stability dG unfold from chymotrypsin proteolysis; higher = more stable
Experimental: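 Folding stability of de novo designed mini-proteins (<80 aa, no Cys; designed by TrROS, TrMRF, ProteinMPNN and the joint model) was measured by cDNA display proteolysis with trypsin and chymotrypsin. Each protease was used at 11 concentrations in a threefold dilution series plus a no-protease condition. K50 was inferred by Bayesian fitting of sequencing counts, and dG unfold was derived against a sequence-predicted unfolded-state K50 (Tsuboyama et al. method). Sequences shown include variable-length N-terminal GS-type padding (SAGGSAGG...) inside a display construct carrying a PA tag. Rows were kept only if the AF2 dimer inter-PAE was >15, to exclude likely homo-oligomers.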

[2] = folding stability dG unfold (combined trypsin and chymotrypsin); higher = more stable
Method in brief: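 Unfolding free energy was derived, per protease or combined, against a sequence-predicted unfolded-state K50 and a shared folded-state K50, starting from K50 inferred by Bayesian fitting of sequencing counts. Digestion with trypsin and chymotrypsin was carried out on designed mini-proteins under 80 residues without cysteine in a PA-tagged cDNA display construct. Only designs with AlphaFold2 dimer inter-PAE above 15 were kept.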

Sequence | folding stability dG unfold [1] [kcal/mol] | folding stability dG unfold [2] [kcal/mol]
SAGGSAGGSAGGMPPRLVEIPIFVPPTDPARAEALAEELREELGAEEVVVRIVLAPPGLGSAGGSAGGSAGG [r7_632_JUSTAS] | 0.982 ± 0.013 | 0.414 ± 0.072
SAGGSAGGSAGGMRTFPSESLETLPENGLRKKTLTVTYVPPDNPERSYVETEVEIIPSEVSAGGSAGGSAGG [r17_241_JUSTAS] | -1.03 ± 0.34 | < -1
SAGGSAGGSAGGMTETVTLTEVGVTTKTAPLPEGPLTTTPTVTVDRVITLPPSSPAALALSAGGSAGGSAGG [r7_889_JUSTAS] | -0.257 ± 0.42 | < -1
SAGGSAGGSAGGMTLTVKDPASDEWTTVDLSPEQLPEVRAAVPEGPVTFELEASDSVIELSAGGSAGGSAGG [r7_188_JUSTAS] | 0.94 ± 0.061 | 0.409 ± 0.059
SAGGSAGGSAGGMVKTTTQVSIDPNSDYRYTTTTTTVVDANGKPLATQTTLTVTKLAGTSSAGGSAGGSAGG [r7_616_JUSTAS] | -0.125 ± 0.34 | -0.516 ± 0.42
SAGGSAGGSAGGMYSVTLTPVSSPDGELRLRAVYPELGLVRDFDPATGRPVRVVPAALLSAGGSAGGSAGGS [r10_589_JUSTAS] | 0.411 ± 0.22 | -0.422 ± 0.26
SAGGSAGGSAGGNDPNGQEKEIPIDPGQRADEIAEEFKDEFNPDHVEIEASEEGYAEVRVSAGGSAGGSAGG [r7_273_TrROS] | 0.887 ± 0.044 | 0.348 ± 0.079
SAGGSAGGSAGGNVPIPFLPEGFDVEVKKIEVPTPGKVKLVLVPKNSDEEFELEFSPEELSAGGSAGGSAGG [r7_342_TrMRF] | -0.633 ± 0.2 | < -1
SAGGSAGGSAGGPELPEDVPVVEVVHLDLPFSPDEPEVVEEAEAKAAALEEGGALAEIRRSAGGSAGGSAGG [r11_519_JUSTAS] | 0.728 ± 0.06 | 0.0364 ± 0.097
SAGGSAGGSAGGPIKIKHNDGVEITIPADNVRSVDTNPGPGYIKITFPGNGQEFQIPIDSAGGSAGGSAGGS [r10_200_TrROS] | 0.00978 ± 0.031 | -0.306 ± 0.12
SAGGSAGGSAGGPIRIKNIENVNPDDGMFTVDVEFPDGKNHTYMIPPDQLEEPGDEIEIPSAGGSAGGSAGG [r7_117_TrROS] | -0.696 ± 0.54 | < -1
SAGGSAGGSAGGPLPVTVTVLERTHYPEEGLYTVKTEGGTVITLPPELIDKHPPGSTVLLSAGGSAGGSAGG [r11_124_JUSTAS] | -0.736 ± 0.82 | < -1
SAGGSAGGSAGGPMRLVRIPLDDGKIKVVPIPPGEAIPFENDNGEIYFMVTDDKIEIMPSAGGSAGGSAGGS [r10_817_TrROS] | 0.181 ± 0.44 | 0.0436 ± 0.15
SAGGSAGGSAGGPPPGDKIEIIVIKFEPRYDPDGEPKNPRIDSIEVITIPADDPDDLLEASAGGSAGGSAGG [r7_439_TrROS] | 0.805 ± 0.079 | 0.348 ± 0.34
SAGGSAGGSAGGPRVGVVRELPDDSRVALLEIEETLTSPGPDGTPRSRPFRAVFVVPLGSAGGSAGGSAGGS [r10_718_TrMRF] | 0.69 ± 0.26 | -0.16 ± 0.18
SAGGSAGGSAGGPSSLLDGTPVELSVSPVEVNSVSTVTLPNGSTVPVSKKVKKTVVSVVASAGGSAGGSAGG [r7_90_JUSTAS] | 0.61 ± 0.075 | 0.23 ± 0.097
SAGGSAGGSAGGPVLIRAVFTPPNGPVLELVVPSPEEVVELAKPFDVEVHIEPISPDDPFSAGGSAGGSAGG [r7_456_TrMRF] | -1.12 ± 0.45 | < -1
SAGGSAGGSAGGRIRLPGWEIEDVKVYETGDKPYYTITYKNPNGKPKKMLMPADDLDDFSAGGSAGGSAGGS [r10_645_TrROS] | -0.216 ± 0.61 | -0.618 ± 0.52
SAGGSAGGSAGGSAVEVDPNGGVTRTRYPGGAVRLETVSPTPDGSLATRTEEVELPGLASAGGSAGGSAGGS [r4_248_JUSTAS] | 0.871 ± 0.013 | 0.403 ± 0.051
SAGGSAGGSAGGSAVTSDGTEVEPDQLVEEATLTPPDGEPVRLRVYAVPDSDEVVTEAGSAGGSAGGSAGGS [r4_13_TrMRF] | 0.691 ± 0.26 | < -1
SAGGSAGGSAGGSDMEIVPRRIPDGFRLMVARNPEGTYTVQVWNPNGKPKWETIPPDEISAGGSAGGSAGGS [r4_120_TrROS] | -0.185 ± 0.22 | -0.485 ± 0.21
SAGGSAGGSAGGSDPSMSLETFVIPESTSTVTLTDPSGTLRTLTTGRDPLTLTEVLPPRSAGGSAGGSAGGS [r4_162_JUSTAS] | 0.459 ± 0.12 | -0.078 ± 0.17
SAGGSAGGSAGGSDSSVITFDIPVSEYPAKIKLSPETKTMTVVSTSPEGTVKVAIERPGSAGGSAGGSAGGS [r10_352_JUSTAS] | -0.297 ± 0.14 | -0.889 ± 0.48
SAGGSAGGSAGGSEEKPIPIKVKIWKPNPGELVEEKEYLIPSNGSAEEIKKAFPNAEISSAGGSAGGSAGGS [r4_187_TrMRF] | 0.689 ± 0.15 | 0.12 ± 0.3

— the supplement of paper PMC12764529
